The results in this text go back to US20220220214A1 (AB INITIO BIOTHERAPEUTICS, published 2022).

One may read the Ki as a dissociation constant, usually derived from enzyme kinetics or from competition with a known ligand. A lower Ki goes with higher affinity. As usually defined, the Kd is a measure of binding affinity in units of concentration. Low readings indicate higher affinity, high ones lower affinity.

In assay [1] the target is T1, apelin (APJ) receptor on APJ-expressing cells (Homo sapiens (Human), UniProt P35414 1-380).
T1 sequence: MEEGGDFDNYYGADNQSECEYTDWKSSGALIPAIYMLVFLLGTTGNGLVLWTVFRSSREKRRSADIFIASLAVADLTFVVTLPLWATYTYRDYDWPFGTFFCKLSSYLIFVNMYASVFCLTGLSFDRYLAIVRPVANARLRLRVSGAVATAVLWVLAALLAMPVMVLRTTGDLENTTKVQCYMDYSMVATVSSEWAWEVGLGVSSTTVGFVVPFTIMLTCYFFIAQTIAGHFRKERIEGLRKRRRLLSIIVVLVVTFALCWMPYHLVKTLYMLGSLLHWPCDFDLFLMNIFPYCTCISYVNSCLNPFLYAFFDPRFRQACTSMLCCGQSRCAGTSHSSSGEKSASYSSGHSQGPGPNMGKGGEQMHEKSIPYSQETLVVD
Description: cell-based or functional assay.

Assay [2] addresses T1, apelin (APJ) receptor on APJ-expressing …. Put plainly: method not stated (Example 2).
In assay [3] the target is T2, mouse APJ receptor expressed on CT26 cells (mouse, UniProt Q9WV08 1-377).
T2 construct: whole, on cells
T2 sequence (looked up): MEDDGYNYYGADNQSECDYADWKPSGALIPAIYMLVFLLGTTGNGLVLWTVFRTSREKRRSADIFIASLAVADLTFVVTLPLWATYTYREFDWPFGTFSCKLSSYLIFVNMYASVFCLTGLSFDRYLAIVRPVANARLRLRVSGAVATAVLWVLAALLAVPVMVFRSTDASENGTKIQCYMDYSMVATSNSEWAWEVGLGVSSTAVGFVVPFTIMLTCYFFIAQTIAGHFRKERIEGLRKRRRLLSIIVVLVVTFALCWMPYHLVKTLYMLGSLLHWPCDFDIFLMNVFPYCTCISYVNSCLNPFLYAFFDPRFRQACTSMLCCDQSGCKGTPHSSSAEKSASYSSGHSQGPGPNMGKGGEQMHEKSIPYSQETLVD
Description: binding to the surface of CT26 cells.

B1: VHH-23 (VHH)
VHH: QVQLQESGGGLVQAGGSLRLSCAASGNISPFRAMGWYRQAPGKEREFVAAINTGAITNYADSVKGRFTISRDNAKNTVYLQMNSLKPEDTAVYYCAASCRAYASRIDLFSYHTYWGQGTQVTVSS
notes: Nanobody
As to B1, the “Fold suppression (saturated), β-arrestin signaling” value in assay [1] came to 8.5 fold. For the same molecule, the affinity in assay [2], expressed as Ki, was 39 nM.

B2: VHH-21 (VHH)
VHH: QVQLQESGGGLVQAGGSLRLSCAASGSISVGYLMGWYRQAPGKERELVAGINYGSNTYYADSVKGRFTISRDNAKNTVYLQMNSLKPEDTAVYYCAASQRRAYAARIDLFSYHTYWGQGTQVTVSS
notes: Nanobody; VHH-21-Fc (aglycosylated human IgG1 Fc) was used in vivo; also called negative allosteric modulator VHH-21
For the molecule B2, the Kd in assay [3] is about 100 nM.

B3: VHH-22 (VHH)
VHH: QVQLQESGGGLVQAGGSLRLSCAASGNIFRGRVMGWYRQAPGKEREFVAGIDYGASTNYADSVKGRFTISRDNAKNTVYLQMNSLKPEDTAVYYCAARLSERRRLEGYWSAVHVYWGQGTQVTVSS
notes: Nanobody
B3: the “Fold suppression (saturated), β-arrestin signaling” value in assay [1] came to 5.9 fold. Also, binding in assay [2] was characterised by a dissociation constant (Kd) of 13 nM.
